Assay results published in US20210388087A1 (Chugai, published 2021).
Each block holds one binder with its values, some of them ahead of it. Where no end group is shown, it is not given here.

Columns and labels:
Human CD137 ECD = target: T1, Human CD137 ECD (human); assay: SPR (Biacore), affinity of single-mutation variant against parental H183/L072
T1 construct: also called human CD137 extracellular domain; hCD137

Human CD3eg linker = target: T2, Human CD3eg linker (human); assay: affinity relative to template H183/L072, single-mutation scan
T2 construct: Single chain: CD3 epsilon and gamma subunits joined by a 29-mer linker, Flag-tag at the C-terminus; also called recombinant human CD3
T2 chain: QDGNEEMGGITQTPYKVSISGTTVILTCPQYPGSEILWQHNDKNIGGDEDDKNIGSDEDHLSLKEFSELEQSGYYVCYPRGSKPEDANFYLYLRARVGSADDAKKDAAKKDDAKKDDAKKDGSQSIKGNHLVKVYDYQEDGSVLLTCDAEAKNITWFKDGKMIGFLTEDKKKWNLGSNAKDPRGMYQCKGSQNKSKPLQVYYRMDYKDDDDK

human CD137-Fc [1] = target: T3, human CD137-Fc (human, biotin-labeled); assay: bead ELISA, IgG on biotinylated antigen, luminescence;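 note: biotinylated antigen captured on streptavidin magnetic beads, then incubated with purified IgG at 50 ng/µL for 1 h at room temperature before detection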
T3 construct: if 90 already holds the Fc, drop the second piece; also called biotin-labeled human CD137 fused to human IgG1 Fc fragment; biotin-human CD137-Fc; not shown: human IgG1 Fc fragment

cyno CD137-Fc = target: T4, cyno CD137-Fc (cynomolgus monkey; human, limits assumed, biotin-labeled); assay: as above
T4 construct: whole entry 92 named; also called biotin-labeled cynomolgus monkey CD137 fused to human IgG1 Fc fragment; not shown: human IgG1 Fc fragment
T4 chain: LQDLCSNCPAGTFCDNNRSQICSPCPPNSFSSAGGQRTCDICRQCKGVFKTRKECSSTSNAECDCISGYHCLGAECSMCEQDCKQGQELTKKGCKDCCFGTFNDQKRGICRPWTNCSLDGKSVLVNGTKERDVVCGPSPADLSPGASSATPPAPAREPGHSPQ

human CD137-Fc [2] = target: T3, human CD137-Fc; assay: bead ELISA on biotin-human CD137-Fc, 0 pmol free CD3e peptide
[3] = target: T5, Biotin-labeled CD3 epsilon peptide antigen (human, also: biotin-labeled, site not given here); assay: bead ELISA, IgG on biotinylated CD3 epsilon peptide, luminescence
T5 construct: also called CD3 peptide
T5 peptide: QDGNEEMGGITQTPY

human CD137-Fc [4] = target: T3, human CD137-Fc; assay: bead ELISA on biotin-human CD137-Fc, 125 vs 0 pmol free CD3e peptide;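 note: target captured on streptavidin-coated magnetic beads, signal read as fluorescence 2 min after adding APS-5 substrate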
human CD137-Fc [5] = target: T3, human CD137-Fc; assay: bead ELISA on biotin-human CD137-Fc with 125 pmol/well free CD3e peptide as competitor;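 note: Streptavidin-coated magnetic beads in blocking buffer as the capture surface, well signal read as fluorescence 2 min after adding APS-5 substrate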

B2: H183/L072 with N53Y (Kabat) in VL dBBDu072L (antibody, name in Kabat numbering, V domains shown)
VH: QVQLVESGGGLVQPGRSLRLSCAASGFTFSNAWMHWVRQAPGKGLEWVAQIKDKGNAYAAYYAPSVKGRFTISRDDSKNSIYLQMNSLKTEDTAVYYCHYVHYASASTVLPAFGVDAWGQGTTVTVSS
VL: DIVMTQSPLSLPVTPGEPASISCQASQELVHMNRNTYLHWYQQKPGQAPRLLIYKVSYRFPGVPDRFSGSGSGTDFTLKISRVEAEDVGVYYCAQGTSVPFTFGQGTKLEIK
notes: Single-mutation variant of H183L072
- fold change of affinity for CD3 (Human CD3eg linker): 0.7 fold

B3: H183/L072 with S93Y (Kabat) in VL dBBDu072L (antibody, name in Kabat numbering, V domains shown)
VH: QVQLVESGGGLVQPGRSLRLSCAASGFTFSNAWMHWVRQAPGKGLEWVAQIKDKGNAYAAYYAPSVKGRFTISRDDSKNSIYLQMNSLKTEDTAVYYCHYVHYASASTVLPAFGVDAWGQGTTVTVSS
VL: DIVMTQSPLSLPVTPGEPASISCQASQELVHMNRNTYLHWYQQKPGQAPRLLIYKVSNRFPGVPDRFSGSGSGTDFTLKISRVEAEDVGVYYCAQGTYVPFTFGQGTKLEIK
notes: as for B2
- fold change of affinity for CD3 (Human CD3eg linker): 0.7 fold

B4: H183/L072 with V94Y (Kabat) in VL dBBDu072L (antibody, name in Kabat numbering, V domains shown)
VH: QVQLVESGGGLVQPGRSLRLSCAASGFTFSNAWMHWVRQAPGKGLEWVAQIKDKGNAYAAYYAPSVKGRFTISRDDSKNSIYLQMNSLKTEDTAVYYCHYVHYASASTVLPAFGVDAWGQGTTVTVSS
VL: DIVMTQSPLSLPVTPGEPASISCQASQELVHMNRNTYLHWYQQKPGQAPRLLIYKVSNRFPGVPDRFSGSGSGTDFTLKISRVEAEDVGVYYCAQGTSYPFTFGQGTKLEIK
notes: as for B2
- fold change of affinity for CD3 (Human CD3eg linker): 0.2 fold

B5: H183/L072 with R54Y (Kabat) in VL dBBDu072L (antibody, name in Kabat numbering, V domains shown)
VH: QVQLVESGGGLVQPGRSLRLSCAASGFTFSNAWMHWVRQAPGKGLEWVAQIKDKGNAYAAYYAPSVKGRFTISRDDSKNSIYLQMNSLKTEDTAVYYCHYVHYASASTVLPAFGVDAWGQGTTVTVSS
VL: DIVMTQSPLSLPVTPGEPASISCQASQELVHMNRNTYLHWYQQKPGQAPRLLIYKVSNYFPGVPDRFSGSGSGTDFTLKISRVEAEDVGVYYCAQGTSVPFTFGQGTKLEIK
notes: as for B2
- fold change of affinity for CD3 (Human CD3eg linker): 1.6 fold

B6: H183/L072 with F96Y (Kabat) in VL dBBDu072L (antibody, name in Kabat numbering, V domains shown)
VH: QVQLVESGGGLVQPGRSLRLSCAASGFTFSNAWMHWVRQAPGKGLEWVAQIKDKGNAYAAYYAPSVKGRFTISRDDSKNSIYLQMNSLKTEDTAVYYCHYVHYASASTVLPAFGVDAWGQGTTVTVSS
VL: DIVMTQSPLSLPVTPGEPASISCQASQELVHMNRNTYLHWYQQKPGQAPRLLIYKVSNRFPGVPDRFSGSGSGTDFTLKISRVEAEDVGVYYCAQGTSVPYTFGQGTKLEIK
notes: as for B2
- fold change of affinity for CD3 (Human CD3eg linker): 0.4 fold

B7: H183/L072 with P56Y (Kabat) in VL dBBDu072L (antibody, name in Kabat numbering, V domains shown)
VH: QVQLVESGGGLVQPGRSLRLSCAASGFTFSNAWMHWVRQAPGKGLEWVAQIKDKGNAYAAYYAPSVKGRFTISRDDSKNSIYLQMNSLKTEDTAVYYCHYVHYASASTVLPAFGVDAWGQGTTVTVSS
VL: DIVMTQSPLSLPVTPGEPASISCQASQELVHMNRNTYLHWYQQKPGQAPRLLIYKVSNRFYGVPDRFSGSGSGTDFTLKISRVEAEDVGVYYCAQGTSVPFTFGQGTKLEIK
notes: as for B2
- fold change of affinity for CD3 (Human CD3eg linker): 2.7 fold

B11: H183/L072 with T97Y (Kabat) in VL dBBDu072L (antibody, name in Kabat numbering, V domains shown)
VH: QVQLVESGGGLVQPGRSLRLSCAASGFTFSNAWMHWVRQAPGKGLEWVAQIKDKGNAYAAYYAPSVKGRFTISRDDSKNSIYLQMNSLKTEDTAVYYCHYVHYASASTVLPAFGVDAWGQGTTVTVSS
VL: DIVMTQSPLSLPVTPGEPASISCQASQELVHMNRNTYLHWYQQKPGQAPRLLIYKVSNRFPGVPDRFSGSGSGTDFTLKISRVEAEDVGVYYCAQGTSVPFYFGQGTKLEIK
notes: as for B2
- fold change of affinity for CD3 (Human CD3eg linker): 0.2 fold

B12: H183/L072 with F55Y (Kabat) in VL dBBDu072L (antibody, name in Kabat numbering, V domains shown)
VH: QVQLVESGGGLVQPGRSLRLSCAASGFTFSNAWMHWVRQAPGKGLEWVAQIKDKGNAYAAYYAPSVKGRFTISRDDSKNSIYLQMNSLKTEDTAVYYCHYVHYASASTVLPAFGVDAWGQGTTVTVSS
VL: DIVMTQSPLSLPVTPGEPASISCQASQELVHMNRNTYLHWYQQKPGQAPRLLIYKVSNRYPGVPDRFSGSGSGTDFTLKISRVEAEDVGVYYCAQGTSVPFTFGQGTKLEIK
notes: as for B2
- fold change of affinity for CD3 (Human CD3eg linker): 10.6 fold

B14: H183/L072 with S52Y (Kabat) in VL dBBDu072L (antibody, name in Kabat numbering, V domains shown)
VH: QVQLVESGGGLVQPGRSLRLSCAASGFTFSNAWMHWVRQAPGKGLEWVAQIKDKGNAYAAYYAPSVKGRFTISRDDSKNSIYLQMNSLKTEDTAVYYCHYVHYASASTVLPAFGVDAWGQGTTVTVSS
VL: DIVMTQSPLSLPVTPGEPASISCQASQELVHMNRNTYLHWYQQKPGQAPRLLIYKVYNRFPGVPDRFSGSGSGTDFTLKISRVEAEDVGVYYCAQGTSVPFTFGQGTKLEIK
notes: as for B2
- fold change of affinity for CD3 (Human CD3eg linker): 1.5 fold

B15: H183/L072 with A89Y (Kabat) in VL dBBDu072L (antibody, name in Kabat numbering, V domains shown)
VH: QVQLVESGGGLVQPGRSLRLSCAASGFTFSNAWMHWVRQAPGKGLEWVAQIKDKGNAYAAYYAPSVKGRFTISRDDSKNSIYLQMNSLKTEDTAVYYCHYVHYASASTVLPAFGVDAWGQGTTVTVSS
VL: DIVMTQSPLSLPVTPGEPASISCQASQELVHMNRNTYLHWYQQKPGQAPRLLIYKVSNRFPGVPDRFSGSGSGTDFTLKISRVEAEDVGVYYCYQGTSVPFTFGQGTKLEIK
notes: as for B2
- fold change of affinity for CD3 (Human CD3eg linker): 0.5 fold

Second part, the binder after the results:

- fold change of affinity for CD137 (Human CD137 ECD): 0 fold
B1: Dual-Fab H183/L072 variant with single light chain mutation T92Y (Kabat) (antibody, name in Kabat numbering, V domains shown)
VH: QVQLVESGGGLVQPGRSLRLSCAASGFTFSNAWMHWVRQAPGKGLEWVAQIKDKGNAYAAYYAPSVKGRFTISRDDSKNSIYLQMNSLKTEDTAVYYCHYVHYASASTVLPAFGVDAWGQGTTVTVSS
VL: DIVMTQSPLSLPVTPGEPASISCQASQELVHMNRNTYLHWYQQKPGQAPRLLIYKVSNRFPGVPDRFSGSGSGTDFTLKISRVEAEDVGVYYCAQGYSVPFTFGQGTKLEIK
notes: expressed as an antibody in Expi293 and purified on Protein A; also called dBBDu183H / dBBDu072L T92Y

- fold change of affinity for CD137 (Human CD137 ECD): 0.3 fold
B8: Dual-Fab H183/L072 variant with single light chain mutation T97Y (Kabat) (antibody, name in Kabat numbering, V domains shown)
VH: QVQLVESGGGLVQPGRSLRLSCAASGFTFSNAWMHWVRQAPGKGLEWVAQIKDKGNAYAAYYAPSVKGRFTISRDDSKNSIYLQMNSLKTEDTAVYYCHYVHYASASTVLPAFGVDAWGQGTTVTVSS
VL: DIVMTQSPLSLPVTPGEPASISCQASQELVHMNRNTYLHWYQQKPGQAPRLLIYKVSNRFPGVPDRFSGSGSGTDFTLKISRVEAEDVGVYYCAQGTSVPFYFGQGTKLEIK
notes: expressed as an antibody in Expi293 and purified on Protein A; also called dBBDu183H / dBBDu072L T97Y

- fold change of affinity for CD137 (Human CD137 ECD): 0.2 fold
B9: Dual-Fab H183/L072 variant with single light chain mutation V51Y (Kabat) (antibody, name in Kabat numbering, V domains shown)
VH: QVQLVESGGGLVQPGRSLRLSCAASGFTFSNAWMHWVRQAPGKGLEWVAQIKDKGNAYAAYYAPSVKGRFTISRDDSKNSIYLQMNSLKTEDTAVYYCHYVHYASASTVLPAFGVDAWGQGTTVTVSS
VL: DIVMTQSPLSLPVTPGEPASISCQASQELVHMNRNTYLHWYQQKPGQAPRLLIYKYSNRFPGVPDRFSGSGSGTDFTLKISRVEAEDVGVYYCAQGTSVPFTFGQGTKLEIK
notes: expressed as an antibody in Expi293 and purified on Protein A; also called dBBDu183H / dBBDu072L V51Y

- fold change of affinity for CD137 (Human CD137 ECD): 0.1 fold
B10: Dual-Fab H183/L072 variant with single light chain mutation V94Y (Kabat) (antibody, name in Kabat numbering, V domains shown)
VH: QVQLVESGGGLVQPGRSLRLSCAASGFTFSNAWMHWVRQAPGKGLEWVAQIKDKGNAYAAYYAPSVKGRFTISRDDSKNSIYLQMNSLKTEDTAVYYCHYVHYASASTVLPAFGVDAWGQGTTVTVSS
VL: DIVMTQSPLSLPVTPGEPASISCQASQELVHMNRNTYLHWYQQKPGQAPRLLIYKVSNRFPGVPDRFSGSGSGTDFTLKISRVEAEDVGVYYCAQGTSYPFTFGQGTKLEIK
notes: expressed as an antibody in Expi293 and purified on Protein A; also called dBBDu183H / dBBDu072L V94Y

- RLU (human CD137-Fc [1]): 14100 RLU
- S/N ratio (human CD137-Fc/Fc) (human CD137-Fc [1]): 6.58
- RLU (cyno CD137-Fc): 3350 RLU
- S/N ratio (cyno CD137-Fc/Fc) (cyno CD137-Fc): 1.56
- ELISA signal (human CD137-Fc [2]): 2700
- RLU [3]: 177000 RLU
- S/N ratio (CD3 peptide/non coating) [3]: 148
- Signal decrease (human CD137-Fc [4]): 30.2%
- ELISA signal (human CD137-Fc [5]): 1880
B13: DXDU01_3#072 (antibody, V domains shown)
VH: QVQLVESGGGLVQPGRSLRLSCAASGFTFSNAWMHWVRQAPGKGLEWVAQIKDRSQLYAAYYAPSVKGRFTISRDDSKNSIYLQMNSLKTEDTAVYYCHYVHYASASTVLGAYGVDAWGQGTTVTVSS
VL: DIVMTQSPLSLPVTPGEPASISCRSSQSLVHSNRNTYLHWYQQKPGQAPRLLIYKVSNRFSGVPDRFSGSGSGTDFTLKISRVEAEDVGVYYCGQGTQVPYTFGQGTKLEIK
notes: Human IgG1; light chain GLS3000 (kappa); also called dBBDu122
